# Where no end group is shown, it is not given here. [ ]: non-standard residue; d: D form. AlaP = not defined here
# Assays:
# Format in all cases: biochemical
# HNE [1] = target: T1, HNE (Homo sapiens, UniProt P08246); assay: Inhibition of protease activity in crude lung secretions of patients (IPF, cystic fibrosis); settings: 30 min incubation, IPF and CF samples
# T1 sequence (P08246 30-267): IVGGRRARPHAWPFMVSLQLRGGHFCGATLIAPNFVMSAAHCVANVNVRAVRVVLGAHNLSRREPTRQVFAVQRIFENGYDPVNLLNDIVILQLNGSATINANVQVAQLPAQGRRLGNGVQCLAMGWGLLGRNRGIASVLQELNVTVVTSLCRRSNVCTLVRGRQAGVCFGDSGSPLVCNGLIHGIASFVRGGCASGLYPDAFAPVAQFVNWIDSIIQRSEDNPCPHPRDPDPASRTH
# PR3 = target: T2, PR3 (Homo sapiens, UniProt P24158); assay: Residual activity of purified protease with FRET substrate in presence of increasing amounts of compound; settings: PR3 1 nM final, 30 min incubation
# T2 construct: in a lysate of purified human neutrophils; endogenous in cells; host or cells: purified human neutrophils (lysate)
# T2 sequence (P24158 28-248): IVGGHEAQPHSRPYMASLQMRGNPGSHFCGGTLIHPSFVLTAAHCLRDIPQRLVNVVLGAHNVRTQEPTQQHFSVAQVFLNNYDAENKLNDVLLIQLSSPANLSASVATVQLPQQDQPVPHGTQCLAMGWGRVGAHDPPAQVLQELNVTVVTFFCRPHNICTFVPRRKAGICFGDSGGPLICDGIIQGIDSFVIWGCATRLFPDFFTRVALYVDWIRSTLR
# Excerpt: (§1) Phosphonate inhibitors and their biotinylated and fluorescent derivatives were synthesized, purified and controlled by mass spectrometry as reported. Their purity was checked by HPLC (data not shown). Purified Ac-Asp-Tyr-Asp-Ala^P(O—C6H4-4-Cl)2 (compound 1) and Ac-Pro-Tyr-Asp-Ala^P(O—C6H4-4-Cl)2 (compound 2) were first assayed for their inhibitory properties by measuring the residual activity of the human neutrophil serine proteases PR3, HNE and CatG in the presence of increasing amounts of each compound. We used for this purpose the FRET substrates that we developed previously for each protease (18). An almost complete inhibition of PR3 (1 nM final) was obtained after a 30 min incubation time with 20 μM of compound 1 (FIG. 1) and 0.3 μM of compound 2 (FIG. 2). Recombinant PR3K99L, […], HNE and CatG were used in the same experimental conditions. […] This emphasizes the importance of the S2 and S4 subsites to discriminate between PR3 and HNE specificities. Significant inhibition of HNE was obtained using about 100 times more Ac-Pro-Tyr-Asp-Ala^P(O—C6H4-4-Cl)2 than required to inhibit PR3. […] We confirmed this observation kinetically by measuring the second order rate constants kobs/l by competition experiments between the PR3 substrate and each inhibitor (17). As expected the second order rate constant kobs/l for compound 2 was about 100 times greater than that for compound 1 (see Table 1).
# HNE [2] = target: T1, HNE; assay: as above
# Excerpt: as §1
# CatG [3] = target: T3, CatG (Homo sapiens, UniProt P08311); assay: as above; settings: CatG 1 nM, same experimental conditions as PR3
# T3 sequence (P08311 21-244): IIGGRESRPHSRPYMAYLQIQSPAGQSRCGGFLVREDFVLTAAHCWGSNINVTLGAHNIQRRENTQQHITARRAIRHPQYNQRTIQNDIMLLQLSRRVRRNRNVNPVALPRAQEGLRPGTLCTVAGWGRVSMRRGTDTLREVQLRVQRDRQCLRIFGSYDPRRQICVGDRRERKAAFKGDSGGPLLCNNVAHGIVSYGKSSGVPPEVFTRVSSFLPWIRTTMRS
# Excerpt: as §1
# Proteinase 3 = target: T4, Proteinase 3 (Homo sapiens, UniProt P24158); assay: Protease inhibition assay, second order rate constant kobs/[I] (method of Tian and Tsou)
# T4 sequence (P24158 28-248): T2 sequence (P24158 28-248)
# Procedure: The compounds of the invention are advantageously selective inhibitors of PR3. […] As described under the Examples below (see PR3 inhibition assay), and as is generally known, efficacy of particular inhibitors against a target protease, for example, recombinant human PR3, is determined by combining the target with a substrate (for example Suc-AanV-SBzI), both in the absence of the inhibitor and in the present of different concentrations of such inhibitor to be tested. Typically, the efficacy of irreversible inhibitors are measured in terms of the second order rate constant of inhibition value (11) or kobs/l. Preferred inhibitors of the invention have typically a kobs/I of more than 10 M^−1s^−1, preferably more than 100 M^−1s^−1, and more preferably of more than […].
# The inactivation of proteases by substrate analog inhibitors in the presence of the substrate by competition for the enzyme-binding site, was measured by the method of Tian and Tsou (17). In this system, product formation in the presence of an irreversible inhibitor approaches an asymptote, as described by
# log([P∞]−[P])=log [P∞]−0.43A[Y]t
# where [P∞] is the concentration of product formed at time approaching infinity, [P] is the concentration of product at time t, [Y] is the inhibitor concentration, and A is the apparent inhibition rate constant in the presence of the substrate. A is given by
# where k+0 is the rate constant for association of the inhibitor with the enzyme, K^−1 is the inverted Michaelis constant, and [S] the substrate concentration. The apparent inhibition rate constant A is the slope of a plot of log([P∞]−[P]) against t, to give the second-order rate constant of inhibition k+0
# CatG [4] = target: T3, CatG; assay: Inhibition of protease activity in crude lung secretions of patients (IPF, cystic fibrosis); settings: 30 min incubation, IPF and CF samples
substance,measurement,setting,value
Ac-Pro-Tyr-Asp-Ala^P(O—C6H4-4-Cl)2 (Ac-PYD[AlaP]; not fully specified (C-terminus); printed as Ac-Pro-Tyr-Asp-Ala^P(O—C6H4-4-Cl)2; reading uncertain; also: C-terminal Ala as phosphonate analogue (Ala^P)) [Compound 2],HNE activity in crude lung secretions,HNE [1],remained unchanged
same,concentration giving almost complete inhibition of PR3,PR3,0.3 µM
same,amount of inhibitor for significant inhibition of HNE relative to that required to inhibit PR3,HNE [2],about 100 times
same,inhibition of HNE,"HNE [2]; HNE 1 nM, same experimental conditions as PR3",no significant inhibition
same,inhibition of CatG,CatG [3],no significant inhibition
same,Proteinase 3 kobs/[I],Proteinase 3,154 ± 3 M⁻¹ s⁻¹
same,kobs/I relative to that of compound 1,Proteinase 3; competition between PR3 substrate and inhibitor,about 100 times
same,CatG activity in crude lung secretions,CatG [4],remained unchanged

# Source: patent US20160257710A1, “SELECTIVE INHIBITORS OF PROTEINASE 3” (INSERM (INSTITUT NATIONAL DE LA SANTÉ ET LA RECHERCHE …, priority 2013, published 2016)
